± gives the half width of the 95% confidence interval.
Tests used:
[1] = folding stability dG unfold from trypsin proteolysis; higher = more stable
Procedure, shortened: (§1)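 Only designs with AlphaFold2 dimer inter-PAE above 15 were retained; each was a mini-protein under 80 residues with no cysteine, in a PA-tagged cDNA display construct. After digestion with trypsin and chymotrypsin and sequencing, K50 was inferred by Bayesian fitting of counts, and unfolding free energy was derived per protease or combined against a sequence-predicted unfolded-state K50 and a shared folded-state K50.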

[2] = folding stability dG unfold from chymotrypsin proteolysis; higher = more stable
Procedure, shortened: as §1

[3] = folding stability dG unfold (combined trypsin and chymotrypsin); higher = more stable
Procedure, shortened: as §1

## SAGGSAGGSAGKHTFNIKDIEIKEVVPSNNYYVVRIEMTFPDGKEHKFTFYFPPGDPITLSAGGSAGGSAGG [r11_211_TrROS]
[1]
  folding stability dG unfold: 1.97 ± 0.055 kcal/mol
[2]
  folding stability dG unfold: 2.87 ± 0.085 kcal/mol
[3]
  folding stability dG unfold: 2.53 ± 0.14 kcal/mol

## SAGGSAGGSAGKIEVTYNKENNTFTVKIVNKKTKKVITIKVKAKSKEDALKKVKELLEKLSAGGSAGGSAGG [r17_386_TrROS_Hall]
[1]
  folding stability dG unfold: 2.79 ± 0.17 kcal/mol
[2]
  folding stability dG unfold: 3.32 ± 0.078 kcal/mol
[3]
  folding stability dG unfold: 3.11 ± 0.19 kcal/mol

## SAGGSAGGSAGKIIEELKKKGYKVEVIKDKKTKKYYVKITVTDKKGNKKTITIPLKDIKPSAGGSAGGSAGG [r17_311_TrROS_Hall]
[1]
  folding stability dG unfold: 2.8 ± 0.23 kcal/mol
[2]
  folding stability dG unfold: 4 ± 0.21 kcal/mol
[3]
  folding stability dG unfold: 3.71 ± 0.35 kcal/mol

## SAGGSAGGSAGKIIFERDEDGYLRAIVYDPKTKEVYVRRFKVKDGKITEVETERINLKDLSAGGSAGGSAGG [r11_167_TrROS_Hall]
[1]
  folding stability dG unfold: 2.06 ± 0.049 kcal/mol
[2]
  folding stability dG unfold: 2.37 ± 0.078 kcal/mol
[3]
  folding stability dG unfold: 2.21 ± 0.1 kcal/mol

## SAGGSAGGSAGKIKITEIHFMPNGMVVVEIEFEDPDGETFNLTVVFRFDPNGKIRDIHIMSAGGSAGGSAGG [r11_709_TrROS]
[1]
  folding stability dG unfold: 3.35 ± 0.15 kcal/mol
[2]
  folding stability dG unfold: 4.35 ± 0.07 kcal/mol
[3]
  folding stability dG unfold: 4.22 ± 0.17 kcal/mol

## SAGGSAGGSAGKIKIVKDEKTGEYKLVVYDKNGKKVKTITLSKEELEKNPELLKKLLEELSAGGSAGGSAGG [r17_496_TrROS_Hall]
[1]
  folding stability dG unfold: 3.52 ± 0.27 kcal/mol
[2]
  folding stability dG unfold: 4.56 ± 0.15 kcal/mol
[3]
  folding stability dG unfold: 4.51 ± 0.17 kcal/mol

## SAGGSAGGSAGKIVILVEPSVEELKAAAEALPGAKVTLEEVEVDGRKYLLATIELPPELLSAGGSAGGSAGG [r17_542_TrROS_Hall]
[1]
  folding stability dG unfold: 2.17 ± 0.074 kcal/mol
[2]
  folding stability dG unfold: 2.27 ± 0.033 kcal/mol
[3]
  folding stability dG unfold: 2.23 ± 0.07 kcal/mol

## SAGGSAGGSAGKKIIIKVKPNMTPEEIAKKLAEELGVEVEIKKVKKLKNGELYIEIEIKPSAGGSAGGSAGG [r17_222_TrROS_Hall]
[1]
  folding stability dG unfold: 3.09 ± 0.17 kcal/mol
[2]
  folding stability dG unfold: 2.48 ± 0.19 kcal/mol
[3]
  folding stability dG unfold: 2.82 ± 0.3 kcal/mol

## SAGGSAGGSAGKKIKVRIKVKDPETNEYYEIEIEAETEEEALEALKKLFPNVKKVEIVPASAGGSAGGSAGG [r11_25_TrROS_Hall]
[1]
  folding stability dG unfold: 3.26 ± 0.11 kcal/mol
[2]
  folding stability dG unfold: 2.69 ± 0.11 kcal/mol
[3]
  folding stability dG unfold: 3.18 ± 0.15 kcal/mol

## SAGGSAGGSAGKKKIIILINENMKEEEIVDYIKKKYGKNVKIEEIIPISPNIKIIKVIIDSAGGSAGGSAGG [r11_580_TrMRF]
[1]
  folding stability dG unfold: 3.96 ± 0.12 kcal/mol
[2]
  folding stability dG unfold: 4.01 ± 0.17 kcal/mol
[3]
  folding stability dG unfold: 4.02 ± 0.14 kcal/mol

## SAGGSAGGSAGKKKIVFLVEDPEEALKTLTFPKDANIEIEKIEVKPLPNGLYEVVIYLKNSAGGSAGGSAGG [r11_150_TrMRF]
[1]
  folding stability dG unfold: 2.76 ± 0.081 kcal/mol
[2]
  folding stability dG unfold: 4.59 ± 0.1 kcal/mol
[3]
  folding stability dG unfold: 4.29 ± 0.24 kcal/mol

## SAGGSAGGSAGKKKKKKPKKVKSVKIKITIKNKNGEKKEITVTFNKDGKLTLEEIKKLLKSAGGSAGGSAGG [r11_759_TrROS_Hall]
[1]
  folding stability dG unfold: 2.22 ± 0.056 kcal/mol
[2]
  folding stability dG unfold: 2.51 ± 0.12 kcal/mol
[3]
  folding stability dG unfold: 2.28 ± 0.21 kcal/mol

## SAGGSAGGSAGKKKLVIEQRPDGLVRIRLPNGKVLEVSREELEELAKELGIDKVEIYPVPSAGGSAGGSAGG [r11_312_TrROS_Hall]
[1]
  folding stability dG unfold: 1.58 ± 0.025 kcal/mol
[2]
  folding stability dG unfold: 2.067 ± 0.019 kcal/mol
[3]
  folding stability dG unfold: 1.83 ± 0.05 kcal/mol

## SAGGSAGGSAGKKKLVVVVDPEEPGRVRIYRDGKVIEMSLEELKKLGIDEVVSVEELLAKSAGGSAGGSAGG [r17_88_TrROS_Hall]
[1]
  folding stability dG unfold: 1.03 ± 0.04 kcal/mol
[2]
  folding stability dG unfold: 2.34 ± 0.026 kcal/mol
[3]
  folding stability dG unfold: 1.96 ± 0.09 kcal/mol

## SAGGSAGGSAGKKPEKYILIKVKKEDVEKLLEAIKKLLPPGAEIVKIEKTPEYVYIVVKLSAGGSAGGSAGG [r11_698_TrROS_Hall]
[1]
  folding stability dG unfold: 3.39 ± 0.13 kcal/mol
[2]
  folding stability dG unfold: 4.38 ± 0.07 kcal/mol
[3]
  folding stability dG unfold: 4.21 ± 0.086 kcal/mol

## SAGGSAGGSAGKKTLPTYDPKKGKISLIVIEDKEGKEIVFEAFGDGKEFIEAAKEFEKKISAGGSAGGSAGG [r11_119_TrMRF]
[1]
  folding stability dG unfold: -0.463 ± 0.12 kcal/mol
[2]
  folding stability dG unfold: 0.182 ± 0.064 kcal/mol
[3]
  folding stability dG unfold: -0.0388 ± 0.099 kcal/mol

## SAGGSAGGSAGKKVTLKVLVKNENGKLYMFEAEYEFDENGKLVKVKVKVYEVEVKDLKLPSAGGSAGGSAGG [r11_1019_TrROS_Hall]
[1]
  folding stability dG unfold: 2.66 ± 0.13 kcal/mol
[2]
  folding stability dG unfold: 3.02 ± 0.039 kcal/mol
[3]
  folding stability dG unfold: 2.86 ± 0.16 kcal/mol

## SAGGSAGGSAGKKYLIKIEVEKNGKKYTITMSLEELKKLISSPNVKIVKIEIVEVSEEDLSAGGSAGGSAGG [r17_204_TrROS_Hall]
[1]
  folding stability dG unfold: 4.33 ± 0.15 kcal/mol
[2]
  folding stability dG unfold: 5 ± 0.07 kcal/mol
[3]
  folding stability dG unfold: 4.98 ± 0.11 kcal/mol

## SAGGSAGGSAGKLEVVELEDGYLVVYDPETGLIVLYTPEEVVAELLDAFDPDKPVVVVEFSAGGSAGGSAGG [r11_374_TrMRF]
[1]
  folding stability dG unfold: 1.46 ± 0.091 kcal/mol
[2]
  folding stability dG unfold: 0.689 ± 0.064 kcal/mol
[3]
  folding stability dG unfold: 1.17 ± 0.11 kcal/mol

## SAGGSAGGSAGKLKIKSVITFESEDDLIVKLIEVDDKVFAIVLDPKTGKPVKIIPDNEIFSAGGSAGGSAGG [r11_851_TrMRF]
[1]
  folding stability dG unfold: 0.0652 ± 0.13 kcal/mol
[2]
  folding stability dG unfold: 1.2 ± 0.13 kcal/mol
[3]
  folding stability dG unfold: 0.873 ± 0.18 kcal/mol

Source: the supplement of paper PMC12764529
